Assay: yeast display, Sf9 membrane polyspecificity reagent, FACS + sequencing; frameworks hold sequencing errors
Procedure, shortened: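 Nanobodies came from a synthetic yeast display library in Saccharomyces cerevisiae BJ5465, induced with galactose for 36–48 hours and stained for 1 hour at 4 °C with 10% biotinylated, detergent-solubilized Sf9 membrane reagent. Cells were enriched on streptavidin microbeads and then FACS-sorted, with low and high (top ~1%) gates set on anti-HA fluorescence for expression and streptavidin fluorescence for reagent binding. Each polyreactivity label reflects the gate a clone came from. Genes were amplified by colony PCR, sequenced by MiSeq 2 × 250 and filtered by CDR length.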

Sequence	polyreactivity (PSR sort gate)
KVQLVESGGGLVQAGGSLRLSCAATGRIFRPKAMGCYIQAPGKEREMVAAIRSTVGSTFYEYSVKGRFSISRDNAKNTVYLEMNRLKREDTAVYYCAGGTSRQFYYWGQGTQVTVSS	low polyreactivity
KVQLVESGGGLVQAGGSLRLSCPASGSIFTSYAMGWYRQAPGKERELVAAISSGGSTNYADSVKGRFTISRDNAKNTVYLQMNSLKPEDTAVYYCAKGSRKSGYKYYHGRVWFGYWGQGTQVTVSS	high polyreactivity
KVQLVESGGGLVQAGGSLRLSRAASGFTFGSYAMGWYRQAPGKERELVAAITRRGGSTRYADSVKGRFTISRDNAKNTVYLQMNSLKPEDTAVYYCAAKHGRNYAANALYGYWGQGTQVTVSS	high polyreactivity
KVQLVESGGGLVQAGGSLRLTCAASGSTFYIYAMGWYRPAPGKERELVATISSTGSTHYADSVKGRFTISRDNAKNTVFLQMNSLKPEDTAGYYCNPVYFGRYSRRDHWGQGTQVTVSS	high polyreactivity
KVQLVESGSGFVQAGGSLGLSCAASGSIFRGYAMGWYRQAPGKERELVAAISWSGGTTYYADSVKGRLTISRDNEKNTFYLQMNSLKPEDTAVYYCAADTTVTITSKYNYWVQGTQVTVSS	low polyreactivity
LVQLQESGGGLVQAGGSLRLSCAASGTISPGGYMGWYRQAPGKERELVASINVGGSTNYADSVKGRFTISRDNAKNTVYLQMKSLKPEDNAVYYCAVWGRNRLQLSYWGQGTQVTVSS	low polyreactivity
LVQLVESGGGLVQAGGSLRLSCAASGFIFGYYAMGWYRQAPGKERELVAASTRSGGSTRYADSVKGRFTISRDKAKNTVYLQMNSLKPEDSAVYYCAADSCPINLYEDYWGQGTQVTVSS	high polyreactivity
LVQLVESGGGLVQAGGSLRLSCAASGFTFPDYAMGWYRPAPGKERELVAAISSDGSTYYADSVKGRFTISRDNAKNTVYLQMNSLKPEDTAVYYCAAYVVWLYGYDYWGQGTQVTVSS	low polyreactivity
LVQLVESGGGLVQAGGSLRLSCAASGSTFGYNAMGWYRQAPGKERELVAAISRGAGSTYYADSVKGRFTITRDNAKYTVYLQMNCLKPEDTAVYYCAKERPRGAPAYYSRIYDYWGQGTQVTVSS	high polyreactivity
LVQLVESGGGLVQAGGSLRLSCAASGSTFSVNALGWYRQAPGNERELVAAITYSGGSTYYADSVKGRFTISRDTAKNTVYLQMNSLKPEDTAVYYCATRVWFYKSRGGYRERDYWGQGTQVTVSS	high polyreactivity
LVQLVESGGGLVQAGGSLRLSCAASGSTSRKYTMGWYRQSPGKERELVARITSSGSSTYYADSVKGRFTISRDTAKNTVYLQMNSLKAEDTADYYCNARAHSDRKSSYIYLPYSYDYWGQGTQVTVSS	high polyreactivity
LVQLVESGGGLVQAGGSLRLSFAASGLIFGRYAMGWYTQAPGKERELVAAISSSGVRTYYADSVKGRFTLSRDNAKNTVYLQLNSLKPEDTAVYYCAAAYWSSPEDTVIKRYYWGQGTQVTVSS	high polyreactivity
LVQLVESGRGLVQAGGSLRLSCAASGSTFRINAMGWYRQAPGKERELVADINSGGNTTYADSVKGRFTISRDNAKNTVYLQMKSLIPEDTAVSYCAADPVFDLWEFLLDYGYDYWGQGSQVTVSS	low polyreactivity
LVQLVQSGGGLVQAGGSLRLSCAASGLTFDYYAKGWYRQAPGKERELVAVISSGGSTYYADSVKGRITISRDNAKNTVYLQMNSLKTEDTAVYYCAAEIYRYRLRDEYDYWGQGTQVTVSS	low polyreactivity
NVQLVESGGGLVQAGGSLRLSCAASGGIFYRYAMGWYRQAPGKEWELVATISRRGGRTYYADSVKGRFTISRDNEKNTVYLQMNSLKPEDTAVYYCAADEWQSGHCLEDDYWGQGTQVTVSS	high polyreactivity
NVQLVESGGGLVQAGGSLRLSCAASGRTFNGYAMGWYRQAPGKERDLVASISWSGGRTYYADSVKGRFTISRDNAKNTVYLQMNSLKPEDTAVYYCAATFVNVVGYDYWGQGTQVTVSS	high polyreactivity
PDQLVESGGGLVQAGGSLRLSCAASGRIFGTNAMGWYRQAPGKERELVADITSGGSTNYADSVKGRFTISRDNAKNTVYLQMNSLKPEDTAVYYCAADVIGDLRWYRDEYWGQGTQVTVSS	low polyreactivity
PDQLVESGGGLVQAGGSLRLSCAASGRTFSGYGMGWYRQAPGKERELVAAFSSSGDSTYYADSVKGRFSIARDNPKNTVYVQMNSLKPDDPAVYYCNDYRRSYNGFRYYYWGQGTQVTVSS	low polyreactivity
PVQLLESGRGLVQAGGRLRLSCAASGINFKYNAMGWYRQAPGKERELVAAISWRGGSTYYADSVKGRFTISRDNAKNTVSLQMNSLKPEDTAVYSCAANLAGSSYYDWGQGTQVTVSS	low polyreactivity
PVQLQESGGGLVQAGRSLRMSSAASGNIFDADIMGWYRQAPGKERELVACIADGGSTNYADSVKGRFTISRDNAKYTVYLQMNSLKPEDTAVYYCAAIAYPDIPTCFDYDSDYFFRGQGTQVTVSS	low polyreactivity

Sequence	polyreactivity (PSR sort gate)
PVQLVESGGGLVQAGGSLRLSCAASGFISQDNAMGWYRQAPAKERELVATISGSGGITYYADSVKGRFTISRANAKTTVYVQMNSLKPEDTAVYYCNNEISYLSWGYDYWGQGTQVTVSS	low polyreactivity
PVQLVESGGGLVQAGGSLRLSCAASGFTFSYYAMGWYRQAPGQEWELVAGIDDSCGSTYYADSVKGRFTISRDNAKNTVELQMNSLKPEDTAFYYCNAVYARKYYYSHGYDYWGQGTQVTVSS	high polyreactivity
PVQLVESGGGLVQAGGSLRLSCAASGIIFYDYAMGWYRQAPGKERELGATITSGGSTNYADSVKGRFTISRDNAKNTVYLQLNSLKPEDTAVYYCAAGRGLILGGVYGYDYWGQGTQVTVSS	low polyreactivity
PVQLVESGGGLVQAGGSLRLSCAASGIIFYRNAMAWYRQAPGKERELVAAITSSGGRTYYAYSVKGRFTISRDNAKNTVYLQMNRLKPEDTAVYYCAATRLYWKIFYGDGDYWGQGTQVTVSS	high polyreactivity
PVQLVESGGGLVQAGGSLRLSCAASGRIFAYYAMGWYRQATGKERELVAAITRRGSTNYADSVKGRFTISGDNAKNTVYLQMNSLKQEVTAFYYCAARDAIYGSDYWGQGTQVNVSS	high polyreactivity
PVQLVESGGGLVQAGGSLRLSCAASGRTFNSYPMVWYRQAPGKERELVADITSSGGSTYADSVKGRFTISRDNAKNTVYLQMNSLKPEDTAVYYCAVDNISNWAVENDYWGQGTQVTVSS	low polyreactivity
PVQLVESGGGLVQAGGSLRLSCAASGRTYYTNAIGWYRQAAGNVRELVAAITGDGTSTYYADSVKGRFTMSRDNATYTVFLQINSLKPEDTAVYYCAATGGDRYEAYSYWGQGTQVTVSS	low polyreactivity
PVQLVESGGGLVQAGGSLRLSCAASGSIFFGYAMGWYRQAPGKERELVAAFNGSVITSYADSVKGRFTISRDNAKNPVYVQMNSLKPEDTAYYCNTGSTWGAVIANYDHWGQGTQVTVSS	low polyreactivity
PVQLVESGGGLVQAGGSLRLSCACSGRIFIYNSMGWYRQATGKEREFVAAISSSGGSTYYADSVKGRFTISRDNAKNTVYLHLNSLKPEDTAVYYCAAGGWPYSGGWFFQPNYYYWGQGTQVTVSS	low polyreactivity
PVQLVESGGGLVQAGGSLRLSCADSGNIFTYNAMGWSRPEPGTERELVAGITSAGGTYYADSVKGRFTISRDNAKNSVYLQMNSLKPEDTAVYYWNVDYDNDTVRGDKIGYSYEYWGHGTQVTVSS	low polyreactivity
PVQLVESGGGLVQAGGSLRLSCPASGRILVGNAMGWYRQAPGKERELVAALTSSGDSTNYADSVKGRFTISRDNAKNTVYLQMNSLKPEDTAVYYCAAGSFGTSGFSDVIWEGDYWGQGTQVTVSS	low polyreactivity
PVQLVESGGGLVQAGGSLSLTCAASGFIFYDYAMRWYRPAPGKERELVAGITSSGTSTYYADSVKGRFTISRDNAKNTVYLQMNSLKPEDTSVYYFNKAPSWWDVRVPFDYWGQGTQVTVSS	low polyreactivity
PVQLVESGGRLVQEGGSLRLICAASARIFPYYSMGWSRPAPGKERELVAAITTSGCRTYYADSVKGRFTISRDNAKYSVYLLMNSMKPEYTAVYVCNKYARGYDMDYWGQGTQVTVSS	high polyreactivity
QAELVESGGGLVQAGGSLRLSCAASGLTFRAYAMGGYRQAPGKERELVAAISWNGGSTYYADSVKGRFTISRDNAKNTVYLQMNCLKPEDTAVYYCNAYDYQYFYGYEYDYWGQGTQVTVSS	high polyreactivity
QAQLQESGGGLVQADGSLRLCCAASGSIFQTIYMGWYRQAPGKERELVASIDIGANTDYAVSVKGRFTISRDNAKNSVYLQMHSLKPEDTAVYYCAARYSRGRLLVSRGNYWGQGTQVTVSS	high polyreactivity
QAQLVESGGGLVQAGGSLRLSCAASGYTFTANVMGWYRQAPGKERELVAAISWSGTSTSYADSVKGRFTISRDNAKNNVYLQMNSLKPEDTAVYYCNTVPYYTGSNGYWGQGTQVTVSS	low polyreactivity
QAQLVETGGGLVQAGGSRRLSCAASGRTYKGYVMGWYRQAPGKEREFVAVITRDGGSTYYAVSVKGRFTISRDNAKNTVYLEMKSLKPEDTEVYYCASTYYPVAGEYDYWGQGTKVTVSS	low polyreactivity
QAQSVESGGGLVQAGGSLRLICAASGITFGNYAMGWYRQAPGKERALVASISWNVGSTYYADSVKGRFTISRDNAKNTVYLQMNSLKPEDTSVYYCARGYDRPRVATFHRFDYWGQGTQVTVSS	low polyreactivity
QDHLVDSGGGLVQAGGSLRLSCDASGRIFRWYTMGWYRQAPGKERELVATITSSGITSYADSVKGRFTISRDNAKNTDYLQMNSLKPEDTAVYYCAADHYYYIHGYDYWGQGTQVTVSS	high polyreactivity
QDHLVESAAGLVQAGGRLRLSCAASGSTLYDYAMVWSRKAPGKDRELVAAIRTGGSTYYADSVKGRFTISRDNAKNTVYLQMNSLKTEDTAVYYCAADHGYQYGYWGQGTQVTVSS	low polyreactivity

— the nanobody polyreactivity screen of Harvey et al. (2022)
